B1: AMOTL2 peptide 66-81 (Angiomotin-like protein 2), 16-mer library wild type / TNKS ANK (TNKS 12 ANK repeats, residues 174-649) (parent)
chain 1: LQQATRQEPQGQEHQG
chain 2: TGVPAVSGALRELLEACRNGDVSRVKRLVDAANVNAKDMAGRKSSPLHFAAGFGRKDVVEHLLQMGANVHARDDGGLIPLHNACSFGHAEVVSLLLCQGADPNARDNWNYTPLHEAAIKGKIDVCIVLLQHGADPNIRNTDGKSALDLADPSAKAVLTGEYKKDELLEAARSGNEEKLMALLTPLNVNCHASDGRKSTPLHLAAGYNRVRIVQLLLQHGADVHAKDKGGLVPLHNACSYGHYEVTELLLKHGACVNAMDLWQFTPLHEAASKNRVEVCSLLLSHGADPTLVNCHGKSAVDMAPTPELRERLTYEFKGHSLLQAAREADLAKVKKTLALEIINFKQPQSHETALHCAVASLHPKRKQVTELLLRKGANVNEKNKDFMTPLHVAAERAHNDVMEVLHKHGAKMNALDTLGQTALHRAALAGHLQTCRLLLSYGSDPSIISLQGFTAAQMGNEAVQQILSESTPIRTSD
B2: PEX5 peptide 108-123 (Peroxisomal targeting signal 1 receptor), 16-mer library wild type / PEX14 Pex14 (PEX14 PEX14, residues 16-84) (parent)
chain 1: GVADLALSENWAQEFL
chain 2: TPGSENVLPREPLIATAVKFLQNSRVRQSPLATRRAFLKKKGLTDEEIDMAFQQSGTAADEPSSLGPAT

Variants of: B1
Assay: proteomic peptide phage display deep mutational scan (ProP-PD DMS): M13 P8 16-mer library selected against immobilised GST-tagged bait for four days (rounds), NGS of the eluted pools per day and pseudo-replica
Details: with TNKS ANK (TNKS 12 ANK repeats, residues 174-649); bait immobilised on MaxiSorp plates (10 µg), library pre-cleared on GST, 2 h binding at 4 °C, five washes; one round per day, days 1-4; value from days 2 and 3; keep out of graded; scale: average fractional NGS count over selection days 2 and 3
For chain 1 LQQATRQEPQGVEHQG, the screen value was 6.42e-05.
With chain 1 LQQATRQEPQGDEHQG the screen value was 0.
With chain 1 LQQATRQEPQGTEHQG the screen value was 9.71e-05.
Work on chain 1 LQQATRQEPQGNEHQG yielded a screen value of 2.19e-05.
chain 1 LQQATRQEPQGGEHQG gave a screen value of 3.04e-05.
chain 1 LQQATRQEPQGSEHQG was tested, and the screen value was 5.26e-05.
Work on chain 1 LQQATRQEPQGKEHQG yielded a screen value of 5.3e-05.
For chain 1 LQQATRQEPQGEEHQG, the screen value was 4.24e-05.
chain 1 LQQATRQEPQGQEHKG was tested, and the screen value was 5.01e-05.
With chain 1 LQQATRQEPVGQEHQG the screen value was 6.99e-05.
Work on chain 1 LQQATRQEPTGQEHQG yielded a screen value of 3.04e-05.
chain 1 LQQATRQEPPGQEHQG showed a screen value of 6.1e-05.
In the case of chain 1 LQQATRQEPRGQEHQG, the screen value is reported as 3.15e-05.
In the case of chain 1 LQQATEQEPQGQEHQG, the screen value is reported as 0.
In the case of chain 1 LQQATSQEPQGQEHQG, the screen value is reported as 6.11e-05.
For chain 1 LQQATLQEPQGQEHQG, the screen value was 0.
chain 1 LQQATKQEPQGQEHQG was tested, and the screen value was 0.
Work on chain 1 LQQAERQEPQGQEHQG yielded a screen value of 5.19e-05.
chain 1 LQQAPRQEPQGQEHQG gave a screen value of 5.25e-05.
In the case of chain 1 LQQARRQEPQGQEHQG, the screen value is reported as 0.
Variant chain 1 LQQAKRQEPQGQEHQG has a screen value of 6.67e-05.
Work on chain 1 LQQAARQEPQGQEHQG yielded a screen value of 2.97e-05.

Variants of: B2
Assay: as above
Details: with PEX14 Pex14 (PEX14 PEX14, residues 16-84); bait immobilised on MaxiSorp plates (10 µg), library pre-cleared on GST, 2 h binding at 4 °C, five washes; one round per day, days 1-4; value from days 2 and 3; scale: average fractional NGS count over selection days 2 and 3
For chain 1 GVADLALSENWIQEFL, the screen value was 0.000211.
In the case of chain 1 GVADLALSENWRQEFL, the screen value is reported as 0.
chain 1 GVADLALSENWWQEFL gave a screen value of 6.63e-05.
Variant chain 1 GVADLALSENWPQEFL has a screen value of 0.
Work on chain 1 GVADLALSENWSQEFL yielded a screen value of 0.000254.
chain 1 GVADLALSENWVQEFL gave a screen value of 0.
Work on chain 1 GVADLALSENWTQEFL yielded a screen value of 0.000373.
In the case of chain 1 GVADLALSENWFQEFL, the screen value is reported as 0.000389.
In the case of chain 1 GVADLALSENWHQEFL, the screen value is reported as 0.000439.
With chain 1 GVADLALSENWDQEFL the screen value was 0.
In the case of chain 1 GVADLALSENWGQEFL, the screen value is reported as 0.000152.
Variant chain 1 GVADLALSENYAQEFL has a screen value of 0.00018.
In the case of chain 1 GVADLALSENFAQEFL, the screen value is reported as 0.
Variant chain 1 GVASLALSENWAQEFL has a screen value of 0.00106.
In the case of chain 1 GVANLALSENWAQEFL, the screen value is reported as 0.
Variant chain 1 GVAKLALSENWAQEFL has a screen value of 0.
chain 1 GVATLALSENWAQEFL showed a screen value of 0.
Work on chain 1 GVAQLALSENWAQEFL yielded a screen value of 0.000734.
chain 1 GVAVLALSENWAQEFL gave a screen value of 0.
chain 1 GVAALALSENWAQEFL was tested, and the screen value was 0.000207.
chain 1 GVAPLALSENWAQEFL showed a screen value of 0.
For chain 1 GVAWLALSENWAQEFL, the screen value was 0.000313.
With chain 1 GVAELALSENWAQEFL the screen value was 0.000293.
In the case of chain 1 GVAILALSENWAQEFL, the screen value is reported as 9.56e-05.
chain 1 GVALLALSENWAQEFL showed a screen value of 0.00112.
chain 1 GVADLALSENWATEFL was tested, and the screen value was 0.000462.
With chain 1 GVADLALSENWAFEFL the screen value was 0.
Work on chain 1 GVADLALSENWAEEFL yielded a screen value of 0.000434.
Variant chain 1 GVADLALSENWAGEFL has a screen value of 0.000163.
In the case of chain 1 GVADLALSENWALEFL, the screen value is reported as 0.000475.
Variant chain 1 GVADLALSENWAREFL has a screen value of 0.000241.
In the case of chain 1 GVADLALSENWAWEFL, the screen value is reported as 0.000116.
Work on chain 1 GVADLALSENWAPEFL yielded a screen value of 0.000626.
Variant chain 1 GVADLALSENWAHEFL has a screen value of 0.000362.
chain 1 GVADLALSENWAYEFL showed a screen value of 0.00131.
With chain 1 GVADLALSENWAQEFI the screen value was 0.
For chain 1 GVADLALSENWAQEFG, the screen value was 0.00105.
chain 1 GVADLALSENWAQEFP gave a screen value of 0.000186.
chain 1 GVADLALSENWAQEFH gave a screen value of 0.000215.
chain 1 GVADLALSENWAQEFR showed a screen value of 0.000857.
Variant chain 1 GVADLALSENWAQEFD has a screen value of 0.
chain 1 GVADLALSENWAQEFW gave a screen value of 0.00162.
chain 1 GVADLALSENWAQEFV showed a screen value of 0.00389.
In the case of chain 1 GVADLALSENWAQEFF, the screen value is reported as 0.
For chain 1 GVADLALSENWAQEFE, the screen value was 0.00013.
Work on chain 1 GVADLALSENWAQEFK yielded a screen value of 0.000183.
With chain 1 GVADLALSENWAQEFN the screen value was 0.
chain 1 GVADSALSENWAQEFL gave a screen value of 0.000191.
chain 1 GVADDALSENWAQEFL gave a screen value of 0.000324.
For chain 1 GVADVALSENWAQEFL, the screen value was 0.00065.
chain 1 GVADYALSENWAQEFL was tested, and the screen value was 0.000821.
chain 1 GVADNALSENWAQEFL was tested, and the screen value was 0.
chain 1 GVADWALSENWAQEFL showed a screen value of 0.000435.
Work on chain 1 GVADFALSENWAQEFL yielded a screen value of 0.
chain 1 GVADGALSENWAQEFL gave a screen value of 0.
In the case of chain 1 GVADLALSELWAQEFL, the screen value is reported as 0.000191.
Variant chain 1 GVADLALSEMWAQEFL has a screen value of 6.63e-05.
For chain 1 GVADLALSEYWAQEFL, the screen value was 0.00069.
chain 1 GVADLALSEFWAQEFL was tested, and the screen value was 0.000356.
In the case of chain 1 GVADLALSEDWAQEFL, the screen value is reported as 0.
chain 1 GVADLALSEKWAQEFL was tested, and the screen value was 0.000111.
chain 1 GVADLALSEIWAQEFL showed a screen value of 0.000414.
Variant chain 1 GVADLALSETWAQEFL has a screen value of 0.000176.
With chain 1 GVADLALSEWWAQEFL the screen value was 0.000211.
chain 1 GVADLALSESWAQEFL was tested, and the screen value was 0.000139.
chain 1 GVADLALSEPWAQEFL showed a screen value of 0.00066.
Variant chain 1 GVADLALSEVWAQEFL has a screen value of 0.000297.
With chain 1 GVADLALSEGWAQEFL the screen value was 0.
With chain 1 GVADLALSENWAQEYL the screen value was 0.
chain 1 GVADLALSENWAQEWL showed a screen value of 0.000382.
chain 1 GVADLALSENWAQEHL was tested, and the screen value was 0.00727.
chain 1 GVADLALSENWAQEIL showed a screen value of 0.

Reference: paper PMC12102759
